Three substances from publication PMC6612524 can be followed below.

As a reminder, the Kd is the free concentration of one partner at which half of the binding sites on the other are occupied at equilibrium, for simple one-to-one binding. Low values mean higher affinity, high ones lower affinity. A word on the stoichiometry N: it is a count of units in the complex or per binding partner.

In this test the target is human plasma fibronectin (human). The test can be described thus: ITC; 35 μM peptide titrated into the cell with 2.7 μM human plasma fibronectin; PBS pH 7.4; 25 °C; one set of sites model; duplicates. Background: ITC needs no label: the signal is the heat of the interaction.
human plasma fibronectin (human), sequence (P02751 other isoform, or with tags, fused parts or gaps): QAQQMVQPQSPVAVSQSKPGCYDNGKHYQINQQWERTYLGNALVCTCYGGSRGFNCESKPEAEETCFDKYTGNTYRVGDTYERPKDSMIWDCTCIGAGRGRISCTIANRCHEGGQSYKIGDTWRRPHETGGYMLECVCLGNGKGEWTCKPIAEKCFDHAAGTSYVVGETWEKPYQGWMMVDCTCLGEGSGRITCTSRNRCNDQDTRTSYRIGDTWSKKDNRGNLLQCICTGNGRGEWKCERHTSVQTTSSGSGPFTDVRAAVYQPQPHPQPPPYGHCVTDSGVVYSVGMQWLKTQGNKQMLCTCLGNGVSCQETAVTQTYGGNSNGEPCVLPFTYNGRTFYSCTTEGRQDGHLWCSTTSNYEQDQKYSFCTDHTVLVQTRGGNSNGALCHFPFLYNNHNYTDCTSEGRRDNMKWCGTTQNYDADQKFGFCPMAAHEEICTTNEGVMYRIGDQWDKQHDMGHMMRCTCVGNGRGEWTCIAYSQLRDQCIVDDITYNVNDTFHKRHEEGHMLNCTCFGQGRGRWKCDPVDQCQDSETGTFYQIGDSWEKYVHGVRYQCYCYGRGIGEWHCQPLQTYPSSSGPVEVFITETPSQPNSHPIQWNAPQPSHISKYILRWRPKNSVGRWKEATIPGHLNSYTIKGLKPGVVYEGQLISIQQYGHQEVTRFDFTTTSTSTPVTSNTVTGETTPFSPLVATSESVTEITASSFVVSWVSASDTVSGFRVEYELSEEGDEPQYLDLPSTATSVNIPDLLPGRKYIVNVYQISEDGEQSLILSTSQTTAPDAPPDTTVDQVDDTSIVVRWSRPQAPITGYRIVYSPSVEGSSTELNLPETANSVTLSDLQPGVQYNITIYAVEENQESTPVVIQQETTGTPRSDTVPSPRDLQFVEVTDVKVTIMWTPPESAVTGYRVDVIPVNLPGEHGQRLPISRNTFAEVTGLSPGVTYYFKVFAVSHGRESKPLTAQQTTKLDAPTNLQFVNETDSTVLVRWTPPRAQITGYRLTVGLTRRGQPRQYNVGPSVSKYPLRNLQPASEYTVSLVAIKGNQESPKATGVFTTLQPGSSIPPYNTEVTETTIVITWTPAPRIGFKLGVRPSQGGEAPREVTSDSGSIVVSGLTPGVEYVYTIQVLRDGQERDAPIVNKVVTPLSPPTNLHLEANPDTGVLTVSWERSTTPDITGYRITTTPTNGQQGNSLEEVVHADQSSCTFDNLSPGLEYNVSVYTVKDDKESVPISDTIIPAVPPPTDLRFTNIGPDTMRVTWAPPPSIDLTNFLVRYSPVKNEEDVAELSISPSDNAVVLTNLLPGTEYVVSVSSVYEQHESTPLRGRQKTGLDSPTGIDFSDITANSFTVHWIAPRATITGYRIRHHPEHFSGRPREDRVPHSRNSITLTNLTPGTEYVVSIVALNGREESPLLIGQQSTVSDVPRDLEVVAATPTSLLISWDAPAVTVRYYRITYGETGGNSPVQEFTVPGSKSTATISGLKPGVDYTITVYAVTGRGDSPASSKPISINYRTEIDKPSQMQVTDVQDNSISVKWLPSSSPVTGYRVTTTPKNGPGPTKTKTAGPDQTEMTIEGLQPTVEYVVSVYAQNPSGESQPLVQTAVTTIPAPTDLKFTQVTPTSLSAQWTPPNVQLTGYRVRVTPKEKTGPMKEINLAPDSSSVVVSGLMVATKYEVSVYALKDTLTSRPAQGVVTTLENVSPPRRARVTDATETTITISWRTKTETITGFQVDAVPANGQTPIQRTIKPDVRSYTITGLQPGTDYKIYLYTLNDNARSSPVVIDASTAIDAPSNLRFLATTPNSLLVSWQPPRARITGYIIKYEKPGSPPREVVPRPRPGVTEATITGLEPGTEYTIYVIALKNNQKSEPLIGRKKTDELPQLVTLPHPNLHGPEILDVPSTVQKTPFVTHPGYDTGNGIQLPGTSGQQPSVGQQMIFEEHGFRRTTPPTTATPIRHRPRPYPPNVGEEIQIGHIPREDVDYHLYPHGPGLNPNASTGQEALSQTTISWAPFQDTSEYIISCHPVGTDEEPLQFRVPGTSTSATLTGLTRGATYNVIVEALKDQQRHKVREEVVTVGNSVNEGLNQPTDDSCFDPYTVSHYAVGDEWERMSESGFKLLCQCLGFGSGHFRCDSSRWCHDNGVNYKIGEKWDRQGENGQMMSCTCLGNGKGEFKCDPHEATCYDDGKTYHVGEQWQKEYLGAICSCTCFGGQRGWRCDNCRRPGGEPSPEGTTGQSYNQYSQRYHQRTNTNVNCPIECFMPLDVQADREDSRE
As for “sulfo-Cy5 labeled 20 kDa PEG-FUD (peptide; other documents disagree on this pair)”, the dissociation constant (Kd) was determined as 13 nM, the dH is -35 kcal/mol and the stoichiometry N came to 1.5.
For “Functional Upstream Domain (FUD) peptide (peptide; other documents disagree on this pair)”, in that order: 4.3 nM, -33 kcal/mol and 1.47.
The like results for “singly sulfo-Cy5 labeled FUD peptide (peptide; other documents disagree on this pair)” were, in that order, 4.7 nM, -35.8 kcal/mol and 1.48.
